Assay results reported in CN112961245A (CHONGQING PREC BIOTECH CO LTD, dated 2021).

T1: CD96-His (human, UniProt P40200-2 22-503, limits assumed)
T1 construct: not shown: His tag
T1 sequence (looked up): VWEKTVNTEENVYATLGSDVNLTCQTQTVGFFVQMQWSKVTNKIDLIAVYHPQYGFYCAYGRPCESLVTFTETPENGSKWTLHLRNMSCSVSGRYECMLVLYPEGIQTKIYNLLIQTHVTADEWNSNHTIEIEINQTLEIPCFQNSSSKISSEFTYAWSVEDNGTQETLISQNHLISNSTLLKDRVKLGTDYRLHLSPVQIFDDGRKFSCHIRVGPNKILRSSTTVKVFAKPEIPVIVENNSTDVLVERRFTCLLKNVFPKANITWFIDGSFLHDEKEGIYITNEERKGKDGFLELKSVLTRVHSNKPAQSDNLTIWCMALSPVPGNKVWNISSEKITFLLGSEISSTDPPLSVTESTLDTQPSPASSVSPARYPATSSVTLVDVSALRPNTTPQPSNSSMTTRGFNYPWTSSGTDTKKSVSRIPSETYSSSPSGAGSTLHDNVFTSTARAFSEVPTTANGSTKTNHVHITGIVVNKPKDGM

T2: CD96 (on 293T-CD96 cells and on T cells) (human) (UniProt P40200)
T2 sequence (looked up): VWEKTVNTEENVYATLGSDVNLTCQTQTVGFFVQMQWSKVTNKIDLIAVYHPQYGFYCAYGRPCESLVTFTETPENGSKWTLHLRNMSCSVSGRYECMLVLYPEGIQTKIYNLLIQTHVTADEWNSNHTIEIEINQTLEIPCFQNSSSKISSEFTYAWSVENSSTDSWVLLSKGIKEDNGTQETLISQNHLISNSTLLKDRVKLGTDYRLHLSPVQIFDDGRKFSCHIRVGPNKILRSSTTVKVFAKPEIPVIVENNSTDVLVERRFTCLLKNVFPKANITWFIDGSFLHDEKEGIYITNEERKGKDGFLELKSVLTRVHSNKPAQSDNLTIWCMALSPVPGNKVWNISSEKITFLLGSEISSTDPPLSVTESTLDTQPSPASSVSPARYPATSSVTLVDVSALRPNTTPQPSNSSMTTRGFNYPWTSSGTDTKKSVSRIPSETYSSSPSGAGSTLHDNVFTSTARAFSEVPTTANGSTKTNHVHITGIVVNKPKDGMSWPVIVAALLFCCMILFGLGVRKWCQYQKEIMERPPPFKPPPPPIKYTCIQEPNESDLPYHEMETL

B1: CD96 ScFv-Fc (scFv)
chain: DVVMTQTPLTLSVTIGQPASISCKSSQSLLDSDGKTYLNWLLQRPGESPKLLIYLVSKLDSGVPDRFTGSGSGTDFTLKISRVEAEDLGVYYCLQATHFPWTFGGGTKLEIKGSTSGSGKPGSGEGSTKGQVTLKESGPGILQPSQTLSLTCSFSGFSLDTFGMGVGWIRQSSGKGLEWLAHIWWDDDKFYNPALKSRLTVSKDTSKNQVFLKIANVDTADTATYYCAHYYGSLSFDVWGTGTTVTVSS
notes: Monospecific scFv-Fc control ('单抗'); also called CD96单抗; CD96抗体; not shown: Fc of the monospecific ScFv-Fc
B2: CD96 ScFv-Holes-PD1 ScFv-Knobes (bispecific antibody, human IgG4 S228P)
chain 1: DVVMTQTPLTLSVTIGQPASISCKSSQSLLDSDGKTYLNWLLQRPGESPKLLIYLVSKLDSGVPDRFTGSGSGTDFTLKISRVEAEDLGVYYCLQATHFPWTFGGGTKLEIKGSTSGSGKPGSGEGSTKGQVTLKESGPGILQPSQTLSLTCSFSGFSLDTFGMGVGWIRQSSGKGLEWLAHIWWDDDKFYNPALKSRLTVSKDTSKNQVFLKIANVDTADTATYYCAHYYGSLSFDVWGTGTTVTVSSESKYGPPCPPCPAPEFLGGPSVFLFPPKPKDTLMISRTPEVTCVVVDVSQEDPEVQFNWYVDGVEVHNAKTKPREEQFNSTYRVVSVLTVLHQDWLNGKEYKCKVSNKGLPSSIEKTISKAKGQPREPQVCTLPPSQEEMTKNQVSLSCAVKGFYPSDIAVEWESNGQPENNYKTTPPVLDSDGSFFLVSKLTVDKSRWQEGNVFSCSVMHEALHNHYTQKSLSLSLGK
chain 2: EIVLTQSPATLSLSPGERATLSCRASQSVSSYLAWYQQKPGQAPRLLIYDASNRATGIPARFSGSGSGTDFTLTISSLEPEDFAVYYCQQSSNWPRTFGQGTKVEIKGSTSGSGKPGSGEGSTKGQVQLVESGGGVVQPGRSLRLDCKASGITFSNSGMHWVRQAPGKGLEWVAVIWYDGSKRYYADSVKGRFTISRDNSKNTLFLQMNSLRAEDTAVYYCATNDDYWGQGTLVTVSSESKYGPPCPPCPAPEFLGGPSVFLFPPKPKDTLMISRTPEVTCVVVDVSQEDPEVQFNWYVDGVEVHNAKTKPREEQFNSTYRVVSVLTVLHQDWLNGKEYKCKVSNKGLPSSIEKTISKAKGQPREPQVYTLPPCQEEMTKNQVSLWCLVKGFYPSDIAVEWESNGQPENNYKTTPPVLDSDGSFFLYSKLTVDKSRWQEGNVFSCSVMHEALHNHYTQKSLSLSLGK
notes: Knob-into-hole heterodimer of two scFv-Fc chains

Columns and labels:
CD96-His = target: T1, CD96-His; assay: BLI (Fortebio), CD96-His antigen immobilised
[1] = target: T2, CD96 (on 293T-CD96 cells and on T cells) (human); assay: flow cytometry on T cells at day 11 (CD96 expression 96.05%), FITC anti-IgG detection
[2] = target: T2, CD96 (on 293T-CD96 cells and on T cells) (human); assay: flow cytometry on 293T-CD96 cells, 1.25 μg antibody, FITC anti-IgG detection
[3] = target: T3, PD1 (on CHO-PD1 cells and on T cells) (human, UniProt Q15116 25-288); assay: flow cytometry on CHO-PD1 cells
T3 construct: whole, on cells; also called PD1抗原分子
T3 sequence (Q15116 25-288): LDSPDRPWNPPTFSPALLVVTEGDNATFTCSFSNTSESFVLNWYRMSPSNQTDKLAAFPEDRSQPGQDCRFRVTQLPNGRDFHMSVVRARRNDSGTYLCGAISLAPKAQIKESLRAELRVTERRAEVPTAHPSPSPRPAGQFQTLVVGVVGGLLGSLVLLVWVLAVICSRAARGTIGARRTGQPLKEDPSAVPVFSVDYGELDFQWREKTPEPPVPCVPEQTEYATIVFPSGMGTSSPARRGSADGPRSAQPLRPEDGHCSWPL

Binder | Kd (CD96-His) | FITC-IgG的表达 (percent positive cells) [1] | FITC-IgG的表达率 (percent positive cells) [2] | binding result [3]
B1 | 0.0308 µM | 96.1% | 86.7% | –
B2 | – | – | – | binds
